Measured values taken from the supplement of paper PMC9170038.

System: MS2 coat protein
Test: apparent KD of MS2 coat protein; designed switch direction (-1 OFF switch, 1 ON switch): 1; higher = weaker reporter binding
In short: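 Designed RNA switches with common flanks were transcribed on Illumina chips by stalled E. coli RNA polymerase and titrated with SNAP-549-labelled MS2 coat protein, from 0.7 or 1.5 nM doubling to 3 µM, in Tris-HCl pH 7.5 buffer with KCl, MgCl2, BSA, DTT, tRNA and Tween-20. Steps lasted 0.8–1.5 h (lowest) to 10–20 min (highest). Titrations ran without input, with 200 uM small-molecule ligand, or with an oligonucleotide input. Normalised cluster fluorescence was curve-fitted, and apparent KD is the per-design median over clusters.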

[1] = input ligand: microRNA oligo, concentration not stated
[2] = Eterna round: R95, input ligand: FMN 200 uM
[3] = Eterna round: R95, input ligand: microRNA oligo, concentration not stated
[4] = Eterna round: R95, input ligand: none

Sequence	apparent KD of MS2 coat protein (input ligand: FMN 200 uM)	apparent KD of MS2 coat protein [1]	apparent KD of MS2 coat protein (input ligand: none)	apparent KD of MS2 coat protein [2]	apparent KD of MS2 coat protein [3]	apparent KD of MS2 coat protein [4]
CAUCCCUCCACAGGAUAUCGACCAAUAAAACGGCGAGAAGGGUGGCCACAUGAGGAUCACCCAUGUGGAAUUGGAUGAACUACC [Atusmaceor] (Eterna round: R96, puzzle: Same State NG 1)	141 nM	120 nM	77 nM	–	–	–
UUAUAACAUGAGGAUCACCCAUGUCAUCUAAGUCGAGGAUAUGGGCAAAUAAUAUAAGAACCAGAAGGCGAAUAUU [Mat - Same State 1 - Mod of UCT - D46] (puzzle: Same State 1)	–	–	–	106 nM	147 nM	232 nM
GGUAAGAAUUAAGGAUAUCGAGUACAUAUGUUUAACAUGAGGAUCACCCAUGUGGGUUGCGGUAUCGAGAAGGUAAAUUAUAAG [Mat - same State NG 2 - JL mod - D63] (Eterna round: R96, puzzle: Same State NG 2)	43.3 nM	29.7 nM	50.8 nM	–	–	–
GAGUGGAGGUAAGGAUAUACAAUGAUAAUCACAGUAGAAGGUACUAACAUGAGGAUCACCCAUGUAGGACUAUACCAGAGAGGG [Parity 39 - Jieux - Same State NG 1] (Eterna round: R96, puzzle: Same State NG 1)	–	13 nM	–	–	–	–
GUUACAUGAGGAUCACCCAUGUAUGUGUGGGAGUAAGUGUCUUAGGAUAUCUAUGAUUUAAUUGAAGAGAAGGAAGAUUGUUGU [JMF's solution 84] (Eterna round: R96, puzzle: Same State NG 3)	–	99.1 nM	–	–	–	–
GGUGCCAAUAAAGCCUACAUGAGGAUCACCCAUGUAUGUAGGUAGGAUAUCGUUUGCAAAGCAAACGAGAAGGGCCUAGGCACC [Mat - Same State NG 3 - JL Mod - D58] (Eterna round: R96, puzzle: Same State NG 3)	27 nM	43.7 nM	53.1 nM	–	–	–
UGUUGUUAAUUAGGAUAUGGUCACAUGAGGAUCACCCAUGUAAUGUCGAUGCUAUGUGGAUUUGAUCAGAAGGAAUGGCUAACA [SameState NG2 #97] (Eterna round: R96, puzzle: Same State NG 2)	105 nM	242 nM	341 nM	–	–	–
UAGGUUGAGCAAGGAUAUCCAAGAUUGAUUCGUAUCGACAUGAGGAUCACCCAUGUCCCGAGAAGGGAGAAGGUGCGUCCAACC [Eternabot solution 30] (Eterna round: R96, puzzle: Same State NG 2)	15.4 nM	27.9 nM	42.3 nM	–	–	–
AGGCUCAGACGAGGAUAUAUGCGAUCACAUGAGGAUCACCCAUGUCUCGAGCUUCGGCUCGAGGCAUAGAAGGUGUCUGAGCCA [SSNG2/4-C1] (Eterna round: R96, puzzle: Same State NG 2)	31.4 nM	111 nM	126 nM	–	–	–
GUUAUACAUGAGGAUCACCCAUGUCAAUGUAGUCGAGGAUAUGGGCAGCUAUGAGGCGUACUAGAAGGCGAAGAGU [JL-ss1-3.12 ViennaUCT mod] (puzzle: Same State 1)	–	–	–	164 nM	374 nM	309 nM
CCGCUCCGUGGAGGAUAUGGGCCUGCCCGGGAUAACGGGCCUAACACAUGAGGAUCACCCAUGUCCCAGAAGGCCGCUGGAGCC [Atxerexebe] (Eterna round: R96, puzzle: Same State NG 2)	24.8 nM	40 nM	113 nM	–	–	–
GGAGCCGGUACUGAGGAUAUUUAUAUUAAAACAUGAGGAUCACCCAUGUAGGCCAGAAGGCCUUGGGAGAAGGCAGAUCGGCUCC [Biseusra - 5] (puzzle: Same State 2)	–	–	–	15.1 nM	46.2 nM	72.8 nM
GCUCGAAUCACAGCCAACAUGAGGAUCACCCAUGUGUGUUGGUAGGAUAUCGUUUCUAAGGGAAACGAGAAGGGCCGAACGAGC [SameState NG3 #9] (Eterna round: R96, puzzle: Same State NG 3)	31.5 nM	39.2 nM	52.1 nM	–	–	–
GCUCGACUGAUGGCCUACAUGAGGAUCACCCAUGUGAUUGGGCAGGAUAUCUAGAUGCAGGAUGUAGAGAAGGGCCUGUCGAGC [SameState NG3 #44] (Eterna round: R96, puzzle: Same State NG 3)	1170 nM	194 nM	349 nM	–	–	–
AAAAUAAGCCCUUGCACAUGAGGAUCACCCAUGUUCGGUUCACAGGAUAUCUAGUCAAACGGGCUGGAGAAGGGUGGCAAGGAC [Xequusceus] (Eterna round: R96, puzzle: Same State NG 3)	67.7 nM	278 nM	227 nM	–	–	–
GUACAGAUCAGAGGAUAUCACGUCGAAUAGACGUGAGAAGGCUGAUCACACAUGAAUAUUAGUACAUGAGGAUCACCCAUGUAC [SSNG1/15-A1] (Eterna round: R96, puzzle: Same State NG 1)	14.5 nM	12.8 nM	18 nM	–	–	–
GCUAGAAUUAAAGCCAACAUGAGGAUCACCCAUGUAUGUUGGCAGGAUAUCGUUUGCAAAGCAAACGAGAAGGGCCAAACUAGC [Mat - Same State NG 3 - JL Mod - D2] (Eterna round: R96, puzzle: Same State NG 3)	43.2 nM	94.1 nM	125 nM	–	–	–
AAAACACAUGAGGAUCACCCAUGUACCAGGUACAUAGGAUAUCCAGGCGCCAAAUAGCGCGGAGAAGGAUGGAAAA [Radireatdi] (puzzle: Same State 1)	–	–	–	78.2 nM	237 nM	1760 nM
GGAAAACAUGAGGAUCACCCAUGUGAAAACGUGGGAGGAUAUCGAUGGAAACCAUACUGUCGAGAAGGCCCAUGUC [EteRNA is fun!] (Eterna round: R96, puzzle: Same State 1)	–	41.8 nM	–	–	–	–
UCAGUCAUGUAAGGAUAUGCAGCCGAAACGGCUGCAGAAGGUACUAUAAUUACAUGAGGAUCACCCAUGUUAUAAAAUAAAUAU [Mat - Same State NG 1 - JL mod - D65] (Eterna round: R96, puzzle: Same State NG 1)	18.4 nM	36 nM	76.6 nM	–	–	–
GCUACCAUUGAUGCCUACAUGAGGAUCACCCAUGUAUGUAGGCAGGAUAUCGAUUGCUUUGCGAUCGAGAAGGGCUUAGGUAGC [JL SSNG3 1.31] (Eterna round: R96, puzzle: Same State NG 3)	52.4 nM	139 nM	183 nM	–	–	–
GAGUGGCAGUUAGGAUAUAUAGUGAUAAUCACAGUAGAAGGAACUGACAUGAGGAUCACCCAUGUAGGACUAAUCCAGAGAGAG [Parity 41 - Jieux - Same State NG 1] (Eterna round: R96, puzzle: Same State NG 1)	65.7 nM	29.8 nM	44.2 nM	–	–	–
CAGUAUCGCGGAGGAUAUGGGCUGAGACCGGAGCAACUCUGGUCAACAUGAGGAUCACCCAUGUCCCAGAAGGCCGCGAUGCUG [Enquoninso] (Eterna round: R96, puzzle: Same State NG 2)	18.4 nM	62.2 nM	96.1 nM	–	–	–
